Results reported in paper PMC5546038, “Engineering the fragment crystallizable (Fc) region of human IgG1 multimers and monomers to fine-tune interactions with sialic acid-dependent receptors” (The Journal of Biological Chemistry, 2017).

T1: hexa-Fc N297A/N563A (human)
T1 chain: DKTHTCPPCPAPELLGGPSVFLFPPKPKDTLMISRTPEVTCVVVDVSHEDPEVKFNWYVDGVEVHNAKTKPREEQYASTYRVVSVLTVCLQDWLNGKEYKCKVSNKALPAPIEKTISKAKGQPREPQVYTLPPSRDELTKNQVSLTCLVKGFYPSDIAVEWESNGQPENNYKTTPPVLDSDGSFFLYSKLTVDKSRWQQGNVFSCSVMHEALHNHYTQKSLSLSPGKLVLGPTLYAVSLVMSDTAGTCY


Key:
hexa-Fc N297A/N563A = target: T1, hexa-Fc N297A/N563A; assay: SEC + other: non-reducing SDS-PAGE; molecular mass ∼650–700 kDa; SEC shown for N563A (supplemental Fig. S2); sizes counted in Fc units of two chains; conditions: both partners purified
[1] = target: the molecule itself; assay: as above

| stoichiometry N (hexa-Fc N297A/N563A) | Binder | stoichiometry N [1] |
| --- | --- | --- |
| ~12 | hexa-Fc N297A/N563A (other, no N-glycans; multimer, approximately dodecamers of Fc / no N-glycans; multimer, approximately dodecamers of Fc) DKTHTCPPCPAPELLGGPSVFLFPPKPKDTLMISRTPEVTCVVVDVSHEDPEVKFNWYVDGVEVHNAKTKPREEQYASTYRVVSVLTVCLQDWLNGKEYKCKVSNKALPAPIEKTISKAKGQPREPQVYTLPPSRDELTKNQVSLTCLVKGFYPSDIAVEWESNGQPENNYKTTPPVLDSDGSFFLYSKLTVDKSRWQQGNVFSCSVMHEALHNHYTQKSLSLSPGKLVLGPTLYAVSLVMSDTAGTCY |  |
|  | hexa-Fc D221N/N297A/N563A (other, N-linked glycan at Asn-221) NKTHTCPPCPAPELLGGPSVFLFPPKPKDTLMISRTPEVTCVVVDVSHEDPEVKFNWYVDGVEVHNAKTKPREEQYASTYRVVSVLTVCLQDWLNGKEYKCKVSNKALPAPIEKTISKAKGQPREPQVYTLPPSRDELTKNQVSLTCLVKGFYPSDIAVEWESNGQPENNYKTTPPVLDSDGSFFLYSKLTVDKSRWQQGNVFSCSVMHEALHNHYTQKSLSLSPGKLVLGPTLYAVSLVMSDTAGTCY | ~12 |
